Test results taken from the nanobody polyreactivity screen of Harvey et al. (2022).

Test: yeast display, Sf9 membrane polyspecificity reagent, FACS + sequencing; frameworks hold sequencing errors
Outline: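 Sorting gates, low and high (top ~1%), were placed on anti-HA fluorescence to track expression and on streptavidin fluorescence to track reagent binding. A clone's polyreactivity label is taken from the gate it came out of. The reagent was 10% biotinylated, detergent-solubilized Sf9 membrane, applied for 1 hour at 4 °C to galactose-induced yeast display cells.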

Which “polyreactivity (PSR sort gate)” value does the source give for “QVQLVESGGGLVQAGGSLRLSCAASGRIFPRYGMGWYRQAPGKERELVADITSSGSTYADSVKGRFTISRDNAKNTVYLQMNSLKPEDTAVYYCNALYRRLSYSWRYRQLYDYWGQGTQVTVSS” here?
Its value is “high polyreactivity”.

With “QVQLVESGGGLVQAGGSLRLSCAASGRIFPRYVMGWYRQAPGKERELVAAITYRGGSTSYADSVKGRFTISRDNAKNTVYLQMNSLKPEDTAVYYCNAKSLYYNYAYDYWGQGTQVTVSS” as the sequence, how does the “polyreactivity (PSR sort gate)” value read?
The value was “high polyreactivity”.

For “QVQLVESGGGLVQAGGSLRLSCAASGRIFPTNAMGWYRQAPGKERELVASIDSGGSTKYADSVKGRFTISRDNAKNTVDLQMNSLKPEDTTVYYRALQVLNYDYWGQGTQVTVSS”, which “polyreactivity (PSR sort gate)” value is on record?
The value was “low polyreactivity”.

With “QVQLVESGGGLVQAGGSLRLSCAASGRIFPTNAMGWYTQAHGKEREFVSAITWRGGSTYYADSVKGRFTISRDNAKNTVYLQMNSLKPEDTAVYYCAATGHIVFFRADDYGYWGQGTQVTVSS” as the sequence, how does the “polyreactivity (PSR sort gate)” value read?
The value was “low polyreactivity”.

For “QVQLVESGGGLVQAGGSLRLSCAASGRIFPTYTMGWYRQAPGKERELVAAISGRGGNTYYADSVKGRFTISRDNAKNTVYLQMNSLKPEDTAVYYCAARYPVRNGYWGQGTQVTVSS”, which “polyreactivity (PSR sort gate)” value is on record?
The value was “high polyreactivity”.

For “QVQLVESGGGLVQAGGSLRLSCAASGRIFPVYAMGWYRQAPGKEREFVAAIRGTGTSTYYADSVKGRFTISRDNAKNTVYLQMNSLKPEDTAVYYCAASAGYAYNYWGQGTQVTVSS”, which “polyreactivity (PSR sort gate)” value is on record?
The value was “low polyreactivity”.

With “QVQLVESGGGLVQAGGSLRLSCAASGRIFPVYAMGWYRQAPGKERELVAAIDYSDGSTYYADSVKGRFTISRDNAKNTVYLQMNSLKPEDTAVYYCAADYDAIYLWWGYDYWGQGTQVTVSS” as the sequence, how does the “polyreactivity (PSR sort gate)” value read?
Its value is “low polyreactivity”.

Which “polyreactivity (PSR sort gate)” value does the source give for “QVQLVESGGGLVQAGGSLRLSCAASGRIFPVYAMGWYRQAPGKERELVAAISKRDGSTSYADSVKGRFTISRDNAKNTVYLEMNSLKPEDTAVYYCAATYLLERPTSIHPRYDYWGQGTQVTVSS” here?
Its value is “low polyreactivity”.

For “QVQLVESGGGLVQAGGSLRLSCAASGRIFPVYTMGWYRQAPGKERELVAAISGNGASTYYADSVKGRFTISRDNAKNTVYLQMNSLKPEDTAVYYCAAYFYYWGSTFVRYEYWGQGTQVTVSS”, which “polyreactivity (PSR sort gate)” value is on record?
Its value is “high polyreactivity”.

Which “polyreactivity (PSR sort gate)” value does the source give for “QVQLVESGGGLVQAGGSLRLSCAASGRIFPWYTMGWYRQAPGKERELVAAITSGGNTDYADSVKGRFTISRDNAKNSVYLQMNSLKPEETAVYYCAAGGYPGTTYYGYDYWGQGTQVTVSS” here?
Its value is “low polyreactivity”.

With “QVQLVESGGGLVQAGGSLRLSCAASGRIFPYMGWYRQAPGKERELVAAISSRGGNTYYADSVKGRFTISRDNAKNTVYLQMNSLKPEDTAVYYCNKVKYTWYDWGQGTQVTVSS” as the sequence, how does the “polyreactivity (PSR sort gate)” value read?
Its value is “high polyreactivity”.

Which “polyreactivity (PSR sort gate)” value does the source give for “QVQLVESGGGLVQAGGSLRLSCAASGRIFPYYAIGWYRQAPGKERELVASTNYADSVKGRFTISRDNAKNTVYLQMNSLKPEDTAVYYCNADSVYPPGSDYVVRDGNFDYWGQGTQVTVSS” here?
Its value is “low polyreactivity”.

Which “polyreactivity (PSR sort gate)” value does the source give for “QVQLVESGGGLVQAGGSLRLSCAASGRIFPYYAKRWYRQAPGKERELVAAITTRGGSTYDADSVKGRFTISRDNAKNTVYLQMNSLKPEDTAVYYCAAVTFGRMEYCGQGTQVTVSS” here?
Its value is “low polyreactivity”.

For “QVQLVESGGGLVQAGGSLRLSCAASGRIFPYYAMGWSRQAPGKERELVAAITSGGTTYYADSVKGRFTISRDNAKNTVYLQMNSLKPEDTAVYYCEYDYWGQGTQVTVSS”, which “polyreactivity (PSR sort gate)” value is on record?
Its value is “low polyreactivity”.

Which “polyreactivity (PSR sort gate)” value does the source give for “QVQLVESGGGLVQAGGSLRLSCAASGRIFPYYAMGWYRPAPGKERELVATISTAGSTNYADSVKGRFTISRDNAKNTVYLQMKSLKPEDTAVYYCATRNTWYHRGYDYWGQGTQVTVSS” here?
The value was “low polyreactivity”.

Which “polyreactivity (PSR sort gate)” value does the source give for “QVQLVESGGGLVQAGGSLRLSCAASGRIFPYYAMGWYRQAPGKEREFVAAITSSGGTTYYADSVKGRFTISRDNAKNTVYLQMNSLKPEDTAVYYCFAVRLYALYAGRPYDYWGQGTQVTVSS” here?
The value was “low polyreactivity”.

Which “polyreactivity (PSR sort gate)” value does the source give for “QVQLVESGGGLVQAGGSLRLSCAASGRIFPYYAMGWYRQAPGKERELVAAISSGTSTYYADSVKGRFTISRDNANNTVYLKMNSLKQEDTAVYYSNGRHRRGRFTHDYDYWGQGTQVTVTS” here?
The value was “low polyreactivity”.

With “QVQLVESGGGLVQAGGSLRLSCAASGRIFPYYAMGWYRQAPGKERELVAAITRGGSRTYYADSVKGRFTISRDNAKNTVYLQMNSLKPEDTAVSYCARLDGFSASDHDYGGQGTQVTVSS” as the sequence, how does the “polyreactivity (PSR sort gate)” value read?
The value was “high polyreactivity”.

For “QVQLVESGGGLVQAGGSLRLSCAASGRIFPYYDMGWYRQAPGKERELVAAITSSGSTFYADSVKGRFTISRDNAKNTVYLQMNSLKPEDTAVYYCNTRDIRVRPYDYWGQGTQVTVSS”, which “polyreactivity (PSR sort gate)” value is on record?
The value was “low polyreactivity”.

Which “polyreactivity (PSR sort gate)” value does the source give for “QVQLVESGGGLVQAGGSLRLSCAASGRIFQAYAMGWYRQAPGKERELVAAISRSGGGTYYADSVKGRFTISRDNAKNTVYLQMNSLKPEDTAVYYCNARGSTARGRGYWGQGTQVTVSS” here?
The value was “high polyreactivity”.

For “QVQLVESGGGLVQAGGSLRLSCAASGRIFQAYAMGWYRQAPGKERELVASISYRGGITYYADSVKGRFTISRDNAKNTVYLQMNSLKPEDTAVYYCAAGRKGSMYYWGQGTQVTVSS”, which “polyreactivity (PSR sort gate)” value is on record?
Its value is “high polyreactivity”.

Which “polyreactivity (PSR sort gate)” value does the source give for “QVQLVESGGGLVQAGGSLRLSCAASGRIFQGYAMGWYRPAPGKERELGASIRTGGTTNYADSVKGRFTISRDNAKNTVYLQMNSLTPEDTAVYYCAKRYYGWYGNFDYWGQGTQVTVSA” here?
The value was “high polyreactivity”.

For “QVQLVESGGGLVQAGGSLRLSCAASGRIFQGYAMGWYRQAPGKERELVAAITRSGGSTYYADSVKGRFTISRDNAKNTVYLQMNSLKPEDTAVYYCAASHYGLLEYWGQGTQVTVSS”, which “polyreactivity (PSR sort gate)” value is on record?
The value was “low polyreactivity”.

For “QVQLVESGGGLVQAGGSLRLSCAASGRIFQGYVMGWYRQAQGQERELVAAITTGGSTYYADSVKGRFTISRDNAKNTVYLQMNSLKPEDTAVYYCNAVVYVSGYNPYIFGYWGQGTQVTVSS”, which “polyreactivity (PSR sort gate)” value is on record?
Its value is “low polyreactivity”.

Which “polyreactivity (PSR sort gate)” value does the source give for “QVQLVESGGGLVQAGGSLRLSCAASGRIFQKYAMGWYRQAPGKESELVAAISSGDSTYADSVKGRFTISRDNAKNTVYLQMNSLIPEDTAVYYCAVDLYDPWWYSYIGEYEYWGQGTQVSVSS” here?
The value was “low polyreactivity”.

Which “polyreactivity (PSR sort gate)” value does the source give for “QVQLVESGGGLVQAGGSLRLSCAASGRIFQNYAMGWYRQAHGKERELVATISSGVSTYYADSVKGRFTISRDNAKNTVYLQMNSLKPEDTAVNYCAAYVPWFEMDYWGQGTQVTVSS” here?
The value was “low polyreactivity”.

For “QVQLVESGGGLVQAGGSLRLSCAASGRIFQQYAMGWYRQAPGKEREVVAAISRGGSTYYADSVKGRFTISRDNAKNTVYLQMNSLKPEDTAVYYCAVRSRRGLKYDYWGQGTQVTVSS”, which “polyreactivity (PSR sort gate)” value is on record?
Its value is “high polyreactivity”.

For “QVQLVESGGGLVQAGGSLRLSCAASGRIFQRNAMGWYRQEPRKEREFVAAITKSGGGTYADSVKGRFTISRDNAKNTVYLQMNSLKPEDTAVYFCAADSRGEDYYYWGQGTQVTVSS”, which “polyreactivity (PSR sort gate)” value is on record?
The value was “high polyreactivity”.

For “QVQLVESGGGLVQAGGSLRLSCAASGRIFQRNVMGWYRQAPGKERELVASITGGGTTNYAHSVKGRFTISRDNAKNTVYLPRNSLKPEDTAVYYCNRRQNVGRVSQYEYWGQGTQVTVSS”, which “polyreactivity (PSR sort gate)” value is on record?
The value was “low polyreactivity”.

With “QVQLVESGGGLVQAGGSLRLSCAASGRIFQRYAMGWYRQSPGKERELVAGITSSGGSTYYADSVKGRFTISRDNAKNTVYLQMNSLKPEDTAVSYCNAGGELCYYGYRAGCTTRSYDYWGQGTLVTVSS” as the sequence, how does the “polyreactivity (PSR sort gate)” value read?
Its value is “low polyreactivity”.

With “QVQLVESGGGLVQAGGSLRLSCAASGRIFQSYAMGWYRQAPGKERELVAGISTRGGNTYYADSVKGRFTISRDNAKNTVYLQMNSLKPEDTAVYYCAKRDYGRFASDYWGQGTQVTVSS” as the sequence, how does the “polyreactivity (PSR sort gate)” value read?
Its value is “high polyreactivity”.

For “QVQLVESGGGLVQAGGSLRLSCAASGRIFQWYAMGWNRQAPGKERELVAAISWRGGSTYYADSVKGRFTISRDNAKNTVYLQMNSLKPEDTAVYYCNAVRRASSGYDYWGHGTQVTVSS”, which “polyreactivity (PSR sort gate)” value is on record?
Its value is “high polyreactivity”.

With “QVQLVESGGGLVQAGGSLRLSCAASGRIFQYNAMGWYRQAPGKERELVAAIRRGGGSTYYADSVKGRFTISRDNAKNTVYLEMNSLKPEDTAVYYCAARRIRVSFYPEYDYWGQGTQVTVSS” as the sequence, how does the “polyreactivity (PSR sort gate)” value read?
Its value is “low polyreactivity”.

Which “polyreactivity (PSR sort gate)” value does the source give for “QVQLVESGGGLVQAGGSLRLSCAASGRIFQYNAMGWYRQAPGKERELVAAIRRGGGSTYYADSVKGRFTISRDNAKNTVYLQMNSLKPEDTAVYYCADRRQRVSFYPEYDYWGQGTQVTVSS” here?
Its value is “low polyreactivity”.

For “QVQLVESGGGLVQAGGSLRLSCAASGRIFQYYAMGWYRQAPGKEREFVAAITGRGTRTYADSVKGRFTISRDNAKYTVYLQMNSLKPEDTAVYYCAKPFHYGRSYRSKMDYWGQGTQVTVSS”, which “polyreactivity (PSR sort gate)” value is on record?
Its value is “high polyreactivity”.

Which “polyreactivity (PSR sort gate)” value does the source give for “QVQLVESGGGLVQAGGSLRLSCAASGRIFQYYAMGWYRQAPGKERELVAAITRSGGRTYYADSVKGRFTISRDNAKNTVFLQMNSLKPEDTAVYYCAARDWYYTMYYWGQGTQVTVSS” here?
The value was “high polyreactivity”.

Which “polyreactivity (PSR sort gate)” value does the source give for “QVQLVESGGGLVQAGGSLRLSCAASGRIFQYYVMGWYRQAPGKERELVAAIRSGGTTNYADSVKGRFTISRDNAKNTVYLQMNSLKPEDTAVYYCNARYRNTFYTRRYAYWGQGTQVTVSS” here?
The value was “high polyreactivity”.

Which “polyreactivity (PSR sort gate)” value does the source give for “QVQLVESGGGLVQAGGSLRLSCAASGRIFRANAMGWYRQAPGKERELVAGISYRGGSTYYADSVKGRFTISRDNAKNTVYLQMNSLKPEDTAVYYCAVRSSPELRYHYEYWGQGTQVTVSS” here?
The value was “low polyreactivity”.

For “QVQLVESGGGLVQAGGSLRLSCAASGRIFRANAMGWYRQAPGKERELVAGITRRGGSTNYADSVKGRFTISRDNAKNTVYLQMNSLKPEDTAVYYCNRDVSLSTSIRMDYWGQGTQVTVSS”, which “polyreactivity (PSR sort gate)” value is on record?
The value was “low polyreactivity”.

With “QVQLVESGGGLVQAGGSLRLSCAASGRIFRAYTMGWYRQAPGKARELVAAISRSTGSTNYADSVKGRFTISRDNAKNTVYLQMNSLKPEDTAVYFCNARSRWYLVGQQSTRLDYWGQGTQVTVSS” as the sequence, how does the “polyreactivity (PSR sort gate)” value read?
Its value is “high polyreactivity”.

Which “polyreactivity (PSR sort gate)” value does the source give for “QVQLVESGGGLVQAGGSLRLSCAASGRIFRFYAMGWYRQAPGKERELVAAITRNVGSTFYADSVKGRFTISRDNAKNTVYLQMNSLKPEDTAVYYCAAESDYYYRYTFDYWGQGTLVTVSS” here?
The value was “low polyreactivity”.
